Patent publication US20230272051A1 (CENTIVAX, published 2023)

Experiments:
[1] = target: T1, SARS-CoV-2 Receptor Binding Domain (RBD) protein (SARS-CoV-2, UniProt P0DTC2 319-541); assay: SPR (Carterra LSA)
T1 construct: also called Sars-Cov-2 (COV2)

[2] = target: SARS-CoV-2 spike protein (on pseudovirus) (SARS-CoV-2, UniProt P0DTC2 14-1273); assay: cell-based or functional assay
[3] = target: T1, SARS-CoV-2 Receptor Binding Domain …; assay: SPR (Carterra LSA); scFv captured by anti-V5, RBD as analyte

Binder | Kd [1] [nM] | IC50 [µg/mL] pseudotyped lenti neutralization [2] [µg/mL] | Kd [3] [nM] | koff [3] [s⁻¹] | kon [3] [M⁻¹ s⁻¹]
COVID19_P01_H05 (scFv, V domains shown) VH: QVQLVQSGAEVKKPGSSVKVSCKASGGTFSNFALTWVRQAPGQGLEWMGLINPSGGSTSYAQRFQGRVTITADESTSTAYMELSSLRSEDTAVYYCARDSVMGGMDVWGQGTLVTVSS VL: SSYVLTQPPSVSVAPGKTARITCGGNNIGSKSVHWYQQKPGQAPVLVIYYDSDRPSGIPERFSGSNSGNTATLTISRVEAGDEADYYCQVWASSSDYVFGGGTKLTVLA | < 50 | 35 | 1.11 | 0.000468 | 423000
COVID19_P14_H10 (scFv, V domains shown) VH: QVQLVQSGAEVKKPGSSVKVSCKASGGSFSRFPISWVRQAPGQGLEWMGGIIPIFGTANYAQRFQGRVTITADESTSTAYMELSSLRSEDTAVYYCALETVMGGLQVWGQGTLVTVSS VL: SSYVLTQPPSVSVAPGKTARITCGGNNIGSKSVHWYQQKPGQAPVLVIYYDSDRPSGIPERFSGSNSGNTATLTISRVEAGDEADYYCQVWDSSSDYVFGGGTKLTVLA | < 50 |  | 28.3 | 0.01 | 355000
COVID19_P14_B05 (scFv, V domains shown) VH: QVQLVQSGAEVKKPGSSVKVSCKASGGTFSSYTISWVRQAPGQGLEWMGIINPSGGSTSYAQKFQGRVTITADESTSTAYMELSSLRSEDTAVYYCARDTVMGGMGVWGQGTLVTVSS VL: SSYVLTQPPSVSVAPGKTARITCGGNNIGSKSVHWYQQKPGQAPVLVIYYDSDRPSGIPERFSGSNSGNTATLTISRVEAGDEADYYCQVWDSSSFYVFGGGTKLTVLA | < 50 |  | 48 | 0.0141 | 294000
COVID19_P14_F05 (scFv, V domains shown) VH: QVQLVQSGAEVKKPGSSVKVSCKASGNTFSMFAINWVRQAPGQGLEWVGVINPIGSTTTYAQKFQGRVTITADESTSTAYMELSSLRSEDTAVYYCARDTVMGGMDVWGQGTLVTVSS VL: SSYVLTQPPSVSVAPGKTARITCGGNNIGSKSVHWYQQKPGQAPVLVIYYDSDRPSGIPERFSGSNSGNTATLTISRVEAGDEADYYCQVWVSSSDYVFGGGTKLTVLA | < 50 |  | 21.7 | 0.00152 | 69900
COVID19_P01_E11 (scFv, V domains shown) VH: QVQLVQSGAEVKKPGSSVKVSCKASGGTFSNYTITWVRQAPGQGLEWLGWISAYNGNTDYAQKLQGRVTITADESTSTAYMELSSLRSEDTAVYYCARDALMGGMDVWGQGTLVTVSS VL: SSYVLTQPPSVSVAPGKTARITCGGNNIGSKSVHWYQQKPGQAPVLVIYYDSDRPSGIPERFSGSNSGNTATLTISRVEAGDEADYYCQVWDSRSDYVFGGGTKLTVLA | < 50 |  | 5.87 | 0.000586 | 99900
COVID19_P02_A04 (scFv, V domains shown) VH: QVQLVQSGAEVKKPGSSVKVSCKASGYAFTSYYMHWVRQAPGQGLEWMGVIDPSEGSTSNARKFQGRVTITADESTSTAYMELSSLRSEDTAVYYCVSDTVMGGMDVWGQGTLVTVSS VL: SSYVLTQPPSVSVAPGKTARITCGGNNIGSKSVHWYQQKPGQAPVLVVYDDSDRPSGIPERFSGSNSGNTATLTISRVEAGDEADYYCQVWDSSSLYVFGGGTKLTVLA | < 50 |  | 41.4 | 0.0187 | 451000
COVID19_P14_F06 (scFv, V domains shown) VH: QVQLVQSGAEVKKPGSSVKVSCKASGGTFSSFAIIWVRQAPGQGLEWMALINPSSGTTSYAQKFQGRVTITADESTSTAYMELSSLRSEDTAVYYCARETVMGGMDVWGQGTLVTVSS VL: SSYVLTQPPSVSVAPGKTARITCGGNNIGSKSVHWYQQKPGQAPVLVIYYDSDRPSGIPERFSGSNSGNTATLTISRVEAGDEADYYCQVWDSSSHYVFGGGTKLTVLA | < 50 |  | 48.3 | 0.0024 | 49700
COVID19_P02_A11 (scFv, V domains shown) VH: QVQLVQSGAEVKKPGSSVKVSCKASGSTFSMFAINWVRQAPGQGLEWVGVINPRGSSTTYAQKFQGRVTITADESTSTAYMELSSLRSEDTAVYYCARDTVMGGMDVWGQGTLVTVSS VL: SSYVLTQPPSVSVAPGKTARITCGGNNIGSKSVHWYQQKPGQAPVLVIYYDSDRPSGIPERFSGSNSGNTATLTISRVEAGDEADYYCQVWDRSSDYVFGGGTKLTVLA | < 50 |  | 45.1 | 0.0147 | 326000
COVID19_P14_F07 (scFv, V domains shown) VH: QVQLVQSGAEVKKPGSSVKVSCKASGGTFSSYAISWMRQAPGQGLEWMGWINPNSGGTNYAQKFQGRVTITADESTSTAYMELSNLRSEDTAVYYCARDTYWGGMDVWGQGTLVTVSS VL: SSYVLTQPPSVSVAPGKTARITCGGNNIGSKSVHWYQQKPGQAPVLVIYYDSDRPSGIPERFSGSNSGNTATLTISRVEAGDEADYYCQVWDSSSFYVFGGGTKLTVLA | < 50 |  | 17 | 0.00245 | 144000
COVID19_P13_H07 (scFv, V domains shown) VH: QVQLVQSGAEVKKPGSSVKVSCKASGYTFINYDINWVRQAPGQGLEWMGGITPIFGTAKYAQKFQGRVTITADESTSTAYMELSSLRSEDTAVYYCARDTVMGGMDVWGQGTLVTVSS VL: SSYVLTQPPSVSVAPGKTARITCGGNNIGSKSVHWYQQKPGQAPVLVIYYDSDRPSGIPERFSGSNSGNTATLTISRVEAGDEADYYCQVWDSSSDYVFGGGTKLTVLA | < 50 | 15 | 1.92 | 0.00031 | 160000
COVID19_P01_H07 (scFv, V domains shown) VH: QVQLVQSGAEVKKPGSSVKVSCKASGYSFNNYDLHWVRQAPGQGLEWMGGIIPIFDTANYAQKFQGRVTITADESTSTAYMELSSLRSEDTAVYYCALETVMGGMVKWGQGTLVTVSS VL: SSYVLTQPPSVSVAPGKTARITCGGNNIGSKSVHWYQQKPGQAPVLVIYYDSDRPSGIPERFSGSNSGNTATLTISRIEAGDEADYYCQVWDSSGDYVFGGGTKLTVLA |  | 6.5 | 0.81 | 0.000401 | 496000
COVID19_P01_H06 (scFv, V domains shown) VH: QVQLVQSGAEVKKPGSSVKVSCKASGYTFTSYYMHWVRQAPGQGLEWMGLIDPSGGTTSYAQKFQGRVTITADESTSTAYMELSSLRSEDTAVYYCVWDTVMGGMDVWGQGTLVTVSS VL: SYVLTQPPSVSVAPGKTAARITCGGNNIGSKSVHWYQQKPGQAPVLVIYKDGERPSGIPERFSGSNSRNTATLTISRVEAGDEADYYCQVWDSSSLYVFGGGTKLTVLA |  | 2.1 | 1.31 | 0.000621 | 474000
